Target: T1, Soluble hen egg-white lysozyme proteins (HEL; Seikagaku Corp. code No. 100940) (hen, UniProt P00698 19-147)
T1 construct: Bought protein, soluble; also called HEL proteins; target substances
Experiment: sandwich on gold/glass slide: immobilised fusion, 500 nM HEL, FITC-labelled anti-HEL polyclonal antibodies, fluorescence microscopy
Protocol: 200 μl of 500 nM HEL proteins is added dropwise as target substances to the neighborhood of the boundary region between the gold layer and the glass layer of the slide glass completely washed in the step (ii). The slide glass is covered with a cover glass. After reaction at room temperature for 30 minutes, the slide glass is washed with each buffer. Next, 1 ml of 100 nM FITC-labeled HEL polyclonal antibodies was spotted thereonto and incubated in a moisture chamber. Then, the slide glass is washed with each buffer. FITC fluorescence at 520 nm is observed with a fluorescence microscope.

T1 sequence (P00698 19-147): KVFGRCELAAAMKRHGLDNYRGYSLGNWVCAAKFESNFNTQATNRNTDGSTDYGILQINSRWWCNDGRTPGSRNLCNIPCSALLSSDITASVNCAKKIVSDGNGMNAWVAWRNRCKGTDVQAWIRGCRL

- binding result: binds
B1: fusion protein of HEL-binding scFv (HyHEL10), Au-binding peptide region and SiO2-binding peptide region (scFv)
scFv: DIVLTQSPATLSVTPGNSVSLSCRASQSIGNNLHWYQQKSHESPRLLIKYASQSISGIPSRFSGSGSGTDFTLSINSVETEDFGMYFCQQSNSWPYTFGGGTKLEITAGGGGSGGGGSGGGGSDIQLQESGPSLVKPSQTLSLTCSVTGDSITSDYWSWIRKFPGNRLEYMGYVSYSGSTYYNPSLKSRISITRDTSKNQYYLDLNSVTTEDTATYYCANWDGDYWGQGTLVTVSAAGGGGSGGGGSGGGGSMHGKTQATSGTIQSMHGKTQATSGTIQSMHGKTQATSGTIQSMHSASGSGGGGSGGGSGGGSEGGGSEGGGSGGGSGSIPMHVHHKHPHVIPMHVHHKHPHV
notes: Secreted from E. coli by the pelB signal of pET-20b(+); In the assays it stood immobilised on a gold/glass substrate; also called target substance capturing body; sc-Fv-HyHEL10 fusion; not shown: His tag used for metal chelate purification (pET-20b(+) vector)
